The source of these data is patent US20100291114A1 (published 2010).

Assay [1] has as its target human FGFR3 (isoform and construct not stated) (human) (UniProt P22607). In words: Scatchard analysis, radioiodinated antibody cell binding; UMUC-14 cells.
Assay [2] shares this target. In words: Scatchard analysis, radioiodinated antibody cell binding; KMS11 cells.
Assay [3] shares this target. In words: Scatchard analysis, radioiodinated antibody cell binding; RT112 cells.
Assay [4] has the same target. Briefly: Scatchard analysis, radioiodinated antibody cell binding; OPM2 cells.
The target in assay [5] is T1, His-tagged IgD2-D3 of human FGFR3-IIIb (human, UniProt P22607-2 143-374, limits assumed).
T1 construct: domain: IgD2-D3; also called FGFR3-IIIb-His protein; Human FGFR3 ECD IIIb; not shown: His tag
T1 sequence (looked up): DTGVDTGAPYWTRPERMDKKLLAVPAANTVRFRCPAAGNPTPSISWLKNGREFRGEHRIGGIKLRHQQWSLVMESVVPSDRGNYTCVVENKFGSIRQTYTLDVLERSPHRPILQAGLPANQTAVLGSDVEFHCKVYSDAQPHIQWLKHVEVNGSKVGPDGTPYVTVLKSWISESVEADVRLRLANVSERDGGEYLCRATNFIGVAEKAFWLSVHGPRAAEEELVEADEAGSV
Briefly: BIAcore SPR; antibody on CM5 chip, FGFR3-His protein injected. Background: SPR reads the build-up and loss of mass on a sensor chip optically.

For assay [6], the target named is T2, His-tagged IgD2-D3 of human FGFR3-IIIc (human, UniProt P22607 143-372).
T2 construct: domain: IgD2-D3; also called FGFR3-IIIC-His protein; IIIc-His protein; not shown: His tag
T2 sequence: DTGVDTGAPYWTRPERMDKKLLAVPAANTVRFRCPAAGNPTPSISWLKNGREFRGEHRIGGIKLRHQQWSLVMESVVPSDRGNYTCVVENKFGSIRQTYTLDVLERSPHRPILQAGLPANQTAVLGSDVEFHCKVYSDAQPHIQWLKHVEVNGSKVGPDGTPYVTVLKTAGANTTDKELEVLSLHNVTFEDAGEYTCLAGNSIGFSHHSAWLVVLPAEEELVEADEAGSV
The assay is described as above.

Assay [7] has as its target human FGFR3 (isoform and construct not stated) (human) (UniProt P22607). In words: cell-based or functional assay.
For assay [8], the target named is T3, human FGFR3-IIIc ECD-human Fc chimeric protein (human, UniProt P22607 23-375).
T3 construct: extracellular domain; Made in CHO cells, purified on protein A; also called FGFR3-Fc chimeric protein; not shown: human Fc
T3 sequence (looked up): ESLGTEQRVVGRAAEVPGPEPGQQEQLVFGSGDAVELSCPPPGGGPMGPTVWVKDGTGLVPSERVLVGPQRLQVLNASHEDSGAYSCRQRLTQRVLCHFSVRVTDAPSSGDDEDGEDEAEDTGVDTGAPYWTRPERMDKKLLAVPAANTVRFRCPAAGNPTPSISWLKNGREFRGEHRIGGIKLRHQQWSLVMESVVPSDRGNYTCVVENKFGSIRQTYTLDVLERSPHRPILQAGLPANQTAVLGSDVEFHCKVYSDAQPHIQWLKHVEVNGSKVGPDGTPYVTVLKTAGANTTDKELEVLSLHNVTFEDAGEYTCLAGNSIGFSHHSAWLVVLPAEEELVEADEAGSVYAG
In words: competition ELISA; FGFR3-IIIc-Fc captured, antibody titrated, then FGF1 and heparin; competitor FGF1. (In general: In an ELISA, binding on a coated surface is turned into a signal by an enzyme label.)

Assay [9] deals with T2, His-tagged IgD2-D3 of human FGFR3-IIIc. In words: BIAcore SPR; R3 Ab on the chip, FGFR3-IIIc-His protein injected, 25 C.
Assay [10] addresses T3, human FGFR3-IIIc ECD-human Fc chimeric …. In words: competition ELISA; FGFR3-IIIc-Fc captured, antibody titrated, then FGF9 and heparin; competitor FGF9.

In the case of R3Mab, the equilibrium dissociation constant (Kd) in assay [1] worked out at 0.34 nM; in [2], 0.35 nM; in assay [3], 0.16 nM; in assay [4], 0.64 nM.

B1: anti-FGFR3 antibody clone 184.6.1 (antibody, V domains shown)
VH: EVQLVESGGGLVQPGGSLRLSCAASGFTFTSTGISWVRQAPGKGLEWVGRIYPTNGSTNYADSVKGRFTISADTSKNTAYLQMNSLRAEDTAVYYCARARTYGIYDLYVDYTEYVMDYWGQGTLV
VL: DIQMTQSPSSLSASVGDRVTITCRASQDVDTSLAWYQQKPGKAPKLLIYSASFLYSGVPSRFSGSGSGTDFTLTISSLQPEDFATYYCQQSTGHPQTFGQGTKVEIKR
On to B1, for which the Kd in [5] was found to be 0.264 nM; in [6] it was 1.44 nM. Also, in [7], the increased inhibitory activity in the Ba/F3-FGFR3 viability assay (fold greater than parent clone 184.6) turned out to be 100.

B2: anti-FGFR3 antibody clone 184.6 (antibody, V domains shown)
VH: EVQLVESGGGLVQPGGSLRLSCAASGFTFTSTGISWVRQAPGKGLEWVGRIYPTNGSTNYADSVKGRFTISADTSKNTAYLQMNSLRAEDTAVYYCARARTYGIYDLYVDYTEYVMDYWGQGTLV
VL: DIQMTQSPSSLSASVGDRVTITCRASQDVSTAVAWYQQKPGKAPKLLIYSASFLYSGVPSRFSGSGSGTDFTLTISSLQPEDFATYYCQQSYTTPPTFGQGTKVEIKR
notes: The tie to the clone name is indirect
For the molecule B2, the Kd in [5] amounted to 38 nM; in assay [6] it was 110 nM.

B3: anti-FGFR3 antibody clone 184.6.1N54S (antibody, V domains shown)
VH: EVQLVESGGGLVQPGGSLRLSCAASGFTFTSTGISWVRQAPGKGLEWVGRIYPTSGSTNYADSVKGRFTISADTSKNTAYLQMNSLRAEDTAVYYCARARTYGIYDLYVDYTEYVMDYWGQGTLV
VL: DIQMTQSPSSLSASVGDRVTITCRASQDVDTSLAWYQQKPGKAPKLLIYSASFLYSGVPSRFSGSGSGTDFTLTISSLQPEDFATYYCQQSTGHPQTFGQGTKVEIKR
For B3, the IC50 in assay [8] came out at 1.7 nM. In [9], this molecule returned a Kd of 3.52 nM, a koff of 0.00032 s⁻¹ and an association rate constant (kon) of 91000 M⁻¹ s⁻¹. In [10], this molecule gave an IC50 of 1.3 nM.

B4: anti-FGFR3 antibody clone 184.6.58 (antibody, V domains shown)
VH: EVQLVESGGGLVQPGGSLRLSCAASGFTFTSTGISWVRQAPGKGLEWVGRIYPTNGSTNYADSVKGRFTISADTSKNTAYLQMNSLRAEDTAVYYCARARTYGIYDLYVDYTEYVMDYWGQGTLV
VL: DIQMTQSPSSLSASVGDRVTITCRASQDVDISLAWYQQKPGKAPKLLIYSASSLASGVPSRFSGSGSGTDFTLTISSLQPEDFATYYCQQGAGNPYTFGQGTKVEIKR
Take B4: the Kd in assay [5] was 0.19 nM; in [6] it was 0.88 nM. Also, in assay [7], the increased inhibitory activity in the Ba/F3-FGFR3 viability assay (fold greater than parent clone 184.6) was determined as 100.

B5: anti-FGFR3 antibody clone 184.6.62 (antibody, V domains shown)
VH: EVQLVESGGGLVQPGGSLRLSCAASGFTFSTTGISWVRQAPGKGLEWVGRIYPLYGSTHYADSVKGRFTISADTSKNTAYLQMNSLRAEDTAVYYCARARTYGIYDLYVDYTEYVMDYWGQGTLV
VL: DIQMTQSPSSLSASVGDRVTITCRASQDVSTAVAWYQQKPGKAPKLLIYSASFLYSGVPSRFSGSGSGTDFTLTISSLQPEDFATYYCQQTYTTSLTFGQGTKVEIKR
For the molecule B5, the Kd in assay [5] was found to be 0.12 nM; in assay [6], 2.24 nM. In addition, the increased inhibitory activity in the Ba/F3-FGFR3 viability assay (fold greater than parent clone 184.6) in assay [7] was found to be 100.

For orientation: Kd means the constant that tells how readily two partners part at equilibrium. Higher therefore signals weaker binding. The IC50 is the midpoint of a concentration-inhibition curve. Read a low IC50 as greater potency in that assay. As usually defined, the koff is a measure of how fast the partners let go of each other. Read a high koff as fast dissociation. What is called kon is the second-order rate constant of association. Higher therefore signals fast association.
